Among the data in paper PMC8071527, “Substrate Specificity of Chimeric Enzymes Formed by Interchange of the Catalytic and Specificity Domains of the 5′-Nucleotidase UshA and the 3′-Nucleotidase CpdB” (Molecules, 2021) are Km, kcat and kcat/Km values, retold here.

Holding throughout (test): phosphate release, colorimetric, saturation kinetics
Assay type in all cases: biochemical, Escherichia coli
What all share (conditions): Mn2+; alkaline phosphatase as auxiliary enzyme

The test system of data set [1] is Nc1ncnc2c1ncn2[C@@H]1O[C@H](CO)[C@H]2OP(=O)(O)O[C@H]21. From the text: (§1) phosphate release, colorimetric, saturation kinetics on CpdB_Ndom–UshA_Cdom
Data set [2] concerns O=c1ccn([C@@H]2O[C@H](CO[P@@](=O)(O)O[P@@](=O)(O)O[C@H]3O[C@H](CO)[C@@H](O)[C@H](O)[C@H]3O)[C@@H](O)[C@H]2O)c(=O)[nH]1.
From the text: as §1

Data set [3] deals with O=[N+]([O-])c1ccc(OP(=O)(O)Oc2ccc([N+](=O)[O-])cc2)cc1.
From the text: as §1

Data set [4] deals with C[N+](C)(C)CCOP(=O)(O)OP(=O)([O-])OC[C@H]1O[C@@H](n2ccc(N)nc2=O)[C@H](O)[C@@H]1O.
From the text: as §1

The subject of data set [5] is Nc1ncnc2c1ncn2[C@@H]1O[C@H](CO)[C@H]2OP(=O)(O)O[C@H]21. An excerpt:
(§2) phosphate release, colorimetric, saturation kinetics on UshA_Ndom–CpdB_Cdom
This is another data set of the same source.

The subject of data set [6] is O=c1ccn([C@@H]2O[C@H](CO[P@@](=O)(O)O[P@@](=O)(O)O[C@H]3O[C@H](CO)[C@@H](O)[C@H](O)[C@H]3O)[C@@H](O)[C@H]2O)c(=O)[nH]1.
From the text: as §2
The source holds these as a separate data set.

For data set [7], the system named is O=[N+]([O-])c1ccc(OP(=O)(O)Oc2ccc([N+](=O)[O-])cc2)cc1.
From the text: as §2
The source holds these as a separate data set.

Data set [8] has as its system C[N+](C)(C)CCOP(=O)(O)OP(=O)([O-])OC[C@H]1O[C@@H](n2ccc(N)nc2=O)[C@H](O)[C@@H]1O.
From the text: as §2
This is another data set of the same source.

What is called Km is the concentration of substrate that gives half-maximal velocity. The kcat is the maximal rate divided by the concentration of active sites. Usually kcat/Km stands for the turnover number divided by the Michaelis constant.

As for CpdB_Ndom–UshA_Cdom (Escherichia coli), the Km in data set [1] was 370 ± 40 µM; in data set [2] it was 5900 ± 1900 µM; in data set [3], 1400 ± 60 µM; in data set [4], 3900 ± 600 µM. Moreover, the kcat stood at 117 ± 24 s⁻¹ in data set [1], 0.2 ± 0.1 s⁻¹ in data set [2], 208 ± 77 s⁻¹ in data set [3] and 11 ± 3 s⁻¹ in data set [4]. Moreover, the kcat/Km came to 320000 ± 80000 M⁻¹ s⁻¹ in data set [1], 40 ± 8 M⁻¹ s⁻¹ in data set [2], 150000 ± 55000 M⁻¹ s⁻¹ in data set [3] and 2700 ± 300 M⁻¹ s⁻¹ in data set [4].

For the substance UshA_Ndom–CpdB_Cdom (Escherichia coli), the Km in data set [5] turned out to be 1100 ± 350 µM; in data set [6], 5000 ± 1700 µM; in data set [7] it was 670 ± 120 µM; in data set [8] it was 1400 ± 400 µM. In addition, the kcat in data set [5] was found to be 3.6 ± 1 s⁻¹; in data set [6], 0.1 ± 0.01 s⁻¹; in data set [7], 45 ± 3 s⁻¹; in data set [8] it was 0.3 ± 0.01 s⁻¹. Also, the kcat/Km amounted to 3400 ± 1300 M⁻¹ s⁻¹ in data set [5], 20 ± 10 M⁻¹ s⁻¹ in data set [6], 68000 ± 13000 M⁻¹ s⁻¹ in data set [7] and 210 ± 60 M⁻¹ s⁻¹ in data set [8].
